{"source": "patent US20160038588A1", "about": "“Myostatin Antagonism in Human Subjects” (AMGEN INC., priority 2013, published 2016)", "key": {"myostatin [1]": {"target": "T1, myostatin (Homo sapiens, UniProt O14793)", "T1 construct": "To produce mature myostatin, the pooled promyostatin was enzymatically cleaved between the propeptide and mature myostatin C terminal; made in house", "T1 sequence (O14793 267-375)": "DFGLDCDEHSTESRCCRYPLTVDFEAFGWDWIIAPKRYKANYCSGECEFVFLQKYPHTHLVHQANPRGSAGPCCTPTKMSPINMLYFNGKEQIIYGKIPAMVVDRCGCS", "test": "C2C12 pMARE-luc cell based myostatin activity assay", "from_the_text": "The antagonists including the binding agents described herein can be tested for their ability to bind myostatin and inhibit or block myostatin activity. Any number of assays or animal tests may be used to determine the ability of the agent to inhibit or block myostatin activity. Several assays used for characterizing the peptides and peptibodies of the present invention are described in the Examples below. One assay is the C2C12 pMARE-luc assay which makes use of a myostatin-responsive cell line (C2C12 myoblasts) transfected with a luciferase reporter vector containing myostatin/activin response elements (MARE). Exemplary peptibodies are assayed by pre-incubating a series of peptibody dilutions with myostatin, and then exposing the cells to the incubation mixture. The resulting luciferase activity is determined, and a titration curve is generated from the series of peptibody dilutions. The IC50 (the concentration of peptibody to achieve 50% inhibition of myostatin activity as measured by luciferase activity) was then determined. A second assay described below is a BIAcore® assay to determine the kinetic parameters ka (association rate constant), kd (dissociation rate constant), and KD (dissociation equilibrium constant) for the myostatin binding agents and other antagonists such as antibodies capable of binding myostatin and its receptor. Lower dissociation equilibrium constants (KD, expressed in nM) indicated a greater affinity of the peptibody for myostatin. […] These assays are described in Example 3.\nC2C12 Cell Based Myostatin Activity Assay\nA myostatin-responsive reporter cell line was generated by transfection of C2C12 myoblast cells (ATCC No: CRL-1772) with a pMARE-luc construct. The pMARE-luc construct was made by cloning twelve repeats of the CAGA sequence, representing the myostatin/activin response elements (Dennler et al. EMBO 17: 3091-3100 (1998)) into a pLuc-MCS reporter vector (Stratagene cat #219087) upstream of the TATA box. The myoblast C2C12 cells naturally express myostatin/activin receptors on its cell surface. When myostatin binds the cell receptors, the Smad pathway is activated, and phosphorylated Smad binds to the response element (Macias-Silva et al. Cell 87:1215 (1996)), resulting in the expression of the luciferase gene. Luciferase activity is then measured using a commercial luciferase reporter assay kit (cat # E4550, Promega, Madison, Wis.) according to manufacturer's protocol. A stable line of C2C12 cells that had been transfected with pMARE-luc (C2C12/pMARE clone #44) was used to measure myostatin activity according to the following procedure.\nEqual numbers of the reporter cells (C2C12/pMARE clone #44) were plated into 96 well cultures. A first round screening using two dilutions of peptibodies was performed with the myostatin concentration fixed at 4 nM. Recombinant mature myostatin was preincubated for 2 hours at room temperature with peptibodies at 40 nM and 400 nM respectively. The reporter cell culture was treated with the myostatin with or without peptibodies for six hours. Myostatin activity was measured by determining the luciferase activity in the treated cultures. This assay was used to initially identify peptibody hits that inhibited the myostatin signaling activity in the reporter assay. Subsequently, a nine point titration curve was generated with the myostatin concentration fixed at 4 nM. The myostatin was preincubated with each of the following nine concentrations of peptibodies: […], 0.4 nM, 4 nM, 20 nM, 40 nM, 200 nM, 400 nM, 2 uM and 4 uM for two hours before adding the mixture to the reporter cell culture. The IC50 values were for a number of exemplary peptibodies are provided in Tables III and for affinity matured peptibodies, in Table VIII."}, "myostatin [2]": {"target": "T1, myostatin", "test": "Epitope binning for peptibodies (BIAcore)", "assay_type": "binding", "procedure": "Epitope Binning for Peptibodies\nA purified peptibody was immobilized on a BIAcore chip to capture myostatin before injection of a second peptibody, and the amount of secondary peptibody bound to the captured myostatin was determined Only peptibodies with distinct epitopes will bind to the captured myostatin, thus enabling the binning of peptibodies with similar or distinct epitope binding properties."}, "myostatin [3]": {"target": "T1, myostatin", "test": "BIAcore affinity analysis on immobilized myostatin", "assay_type": "binding", "conditions": "Biacore assay", "from_the_text": "The antagonists including the binding agents described herein can be tested for their ability to bind myostatin and inhibit or block myostatin activity. Any number of assays or animal tests may be used to determine the ability of the agent to inhibit or block myostatin activity. Several assays used for characterizing the peptides and peptibodies of the present invention are described in the Examples below. One assay is the C2C12 pMARE-luc assay which makes use of a myostatin-responsive cell line (C2C12 myoblasts) transfected with a luciferase reporter vector containing myostatin/activin response elements (MARE). Exemplary peptibodies are assayed by pre-incubating a series of peptibody dilutions with myostatin, and then exposing the cells to the incubation mixture. The resulting luciferase activity is determined, and a titration curve is generated from the series of peptibody dilutions. The IC50 (the concentration of peptibody to achieve 50% inhibition of myostatin activity as measured by luciferase activity) was then determined. […]\nDirect binding assays were used to screen and rank the peptibodies in order of their ability to bind to immobilized myostatin. […] Peptibody binding kinetic parameters including ka (association rate constant), kd (dissociation rate constant) and KD (dissociation equilibrium constant) were determined using the BIA evaluation 3.1 computer program (Biacore, Inc.). […]"}, "[4]": {"target": "T2, myostatin binding to ActRIIB/Fc (Homo sapiens, UniProt O14793)", "T2 construct": "To produce mature myostatin, the pooled promyostatin was enzymatically cleaved between the propeptide and mature myostatin C terminal; host or cells: myostatin: E. coli K-12 strain 2596; ActRIIB/Fc purchased", "T2 sequence (O14793 267-375)": "T1 sequence (O14793 267-375)", "test": "Blocking assay on ActRIIB/Fc surface (BIAcore)", "procedure": "Blocking Assay on ActRIIB/Fc Surface\nBlocking assays were carried out using immobilized ActRIIB/Fc (R&D Systems, Minneapolis, Minn.) and myostatin in the presence and absence of peptibodies with the BIAcore® assay system. […] Baseline myostatin-ActRIIB/Fc binding was first determined in the absence of any peptibody.\nFor early screening studies, peptibodies were diluted to 4 nM, 40 nM, and 400 nM in sample buffer and incubated with 4 nM myostatin (also diluted in sample buffer). The peptibody:ligand mixtures were allowed to reach equilibrium at room temperature (at least 5 hours) and then were injected over the immobilized ActRIIB/Fc surface for 20 to 30 minutes at a flow rate of 10 μl/min. […] Selected peptibodies were further characterized using the blocking assay of a full concentration series in order to derive IC50 values (for neutralizing peptibodies) or EC50 (for non-neutralizing peptibodies). The peptibody samples were serially diluted from 200 nM to […] in sample buffer and incubated with […] myostatin at room temperature to reach equilibrium (minimum of five hours) before injected over the immobilized ActRIIB/Fc surface for 20 to 30 minutes at a flow rate of 10 μl/min. Following the sample injection, bound ligand was allowed to dissociate from the receptor for 3 minutes."}}, "note": "pIC50, pKd: −log10 of the molar value. Where no end group is shown, it is not given here."}
{"substance": "TN8-19: peptibody; peptide QGHCTRWPWMCPPY (cysteine pairing not given here; also: Fc fusion peptibody)", "values": [{"measurement": "inhibition of myostatin activity in cell-based assay", "setting": "myostatin [1]", "result": "inhibit myostatin activity"}, {"measurement": "IC50 of peptibody compared with peptide (FIG. 1)", "setting": "myostatin [1]; C2C12 based assay", "result": "significantly less than that of the peptide"}, {"measurement": "pIC50", "setting": "myostatin [1]; pMARE luc cell-based assay, myostatin 4 nM", "result": "~7.64"}, {"measurement": "epitope on myostatin (binning)", "setting": "myostatin [2]", "result": "bind to different epitopes"}, {"measurement": "pKd", "setting": "myostatin [3]", "result": "~8.70"}, {"measurement": "blocking of myostatin/ActRIIB/Fc interactions", "setting": "[4]", "result": "does not block"}]}
